Assay results taken from patent publication US20200062863A1 (CSL BEHRING, published 2020).

Legend:
human FXIIa = biological target: T1, human FXIIa (human, UniProt P00748 20-615, limits assumed); experiment: cell-based or functional assay
T1 sequence: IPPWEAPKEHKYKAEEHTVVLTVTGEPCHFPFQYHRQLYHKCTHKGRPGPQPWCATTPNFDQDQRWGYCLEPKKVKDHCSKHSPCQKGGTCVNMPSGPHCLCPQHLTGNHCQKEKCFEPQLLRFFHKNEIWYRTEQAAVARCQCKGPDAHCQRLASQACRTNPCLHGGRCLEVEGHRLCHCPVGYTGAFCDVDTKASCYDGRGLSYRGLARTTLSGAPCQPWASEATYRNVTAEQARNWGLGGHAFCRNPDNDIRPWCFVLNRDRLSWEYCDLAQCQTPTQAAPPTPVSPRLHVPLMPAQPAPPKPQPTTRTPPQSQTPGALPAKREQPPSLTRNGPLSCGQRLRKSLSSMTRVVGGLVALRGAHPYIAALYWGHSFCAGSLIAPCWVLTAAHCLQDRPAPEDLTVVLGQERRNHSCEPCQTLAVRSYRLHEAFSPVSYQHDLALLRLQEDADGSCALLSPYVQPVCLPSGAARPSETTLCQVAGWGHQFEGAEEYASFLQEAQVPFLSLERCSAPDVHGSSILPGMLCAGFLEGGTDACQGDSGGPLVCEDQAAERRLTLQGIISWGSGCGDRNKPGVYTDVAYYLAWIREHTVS

T538A = biological target: T2, T538A; experiment: Western blot of culture supernatant (non-reducing SDS-PAGE) probed with 3F7 mAb, anti-human IgG-FITC
T2 construct: also called Mu-FXII T538A mutant with C-terminal 8xHis-tag; mutant m)
T2 single chain: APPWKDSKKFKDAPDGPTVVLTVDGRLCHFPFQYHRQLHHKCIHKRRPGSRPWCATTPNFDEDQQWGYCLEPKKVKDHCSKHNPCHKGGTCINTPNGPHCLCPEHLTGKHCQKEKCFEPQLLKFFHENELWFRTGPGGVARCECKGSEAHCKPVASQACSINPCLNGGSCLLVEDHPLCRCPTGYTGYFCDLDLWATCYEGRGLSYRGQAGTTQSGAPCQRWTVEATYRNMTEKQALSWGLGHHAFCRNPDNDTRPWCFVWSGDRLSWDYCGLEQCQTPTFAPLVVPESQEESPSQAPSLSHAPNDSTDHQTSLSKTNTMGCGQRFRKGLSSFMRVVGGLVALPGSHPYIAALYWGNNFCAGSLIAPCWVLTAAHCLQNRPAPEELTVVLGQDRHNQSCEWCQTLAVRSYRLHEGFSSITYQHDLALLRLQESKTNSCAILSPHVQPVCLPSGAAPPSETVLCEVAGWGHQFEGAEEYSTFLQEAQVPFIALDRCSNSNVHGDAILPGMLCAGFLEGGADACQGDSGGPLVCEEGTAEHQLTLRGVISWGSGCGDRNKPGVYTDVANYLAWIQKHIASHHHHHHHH
Protocol: (§1) Proteins were then transferred electrophoretically onto nitrocellulose filters and blocked for 1 hour in 5% Milk powder in Tris-buffered saline with 0.05% Tween-20 (TTBS). Filters were then incubated for 1 hour with either 3F7 mAb or an anti-His mAb 3H3 (both at […] in TTBS with 5% Milk powder), washed thoroughly with TTBS, then incubated for a further hour with anti-human IgG-FITC or anti-mouse IgG-FITC, respectively (Millipore, USA; both at 0.25 mg/ml in TTBS with 5% Milk powder). Following further washing of membranes in TTBS, Ab-FITC bound proteins were visualized using a Typhoon variable mode analyzer (GE Healthcare, USA).

N516S = biological target: T3, N516S; experiment: as above
T3 construct: also called Mu-FXII N516S mutant with C-terminal 8xHis-tag; mutant l)
T3 single chain: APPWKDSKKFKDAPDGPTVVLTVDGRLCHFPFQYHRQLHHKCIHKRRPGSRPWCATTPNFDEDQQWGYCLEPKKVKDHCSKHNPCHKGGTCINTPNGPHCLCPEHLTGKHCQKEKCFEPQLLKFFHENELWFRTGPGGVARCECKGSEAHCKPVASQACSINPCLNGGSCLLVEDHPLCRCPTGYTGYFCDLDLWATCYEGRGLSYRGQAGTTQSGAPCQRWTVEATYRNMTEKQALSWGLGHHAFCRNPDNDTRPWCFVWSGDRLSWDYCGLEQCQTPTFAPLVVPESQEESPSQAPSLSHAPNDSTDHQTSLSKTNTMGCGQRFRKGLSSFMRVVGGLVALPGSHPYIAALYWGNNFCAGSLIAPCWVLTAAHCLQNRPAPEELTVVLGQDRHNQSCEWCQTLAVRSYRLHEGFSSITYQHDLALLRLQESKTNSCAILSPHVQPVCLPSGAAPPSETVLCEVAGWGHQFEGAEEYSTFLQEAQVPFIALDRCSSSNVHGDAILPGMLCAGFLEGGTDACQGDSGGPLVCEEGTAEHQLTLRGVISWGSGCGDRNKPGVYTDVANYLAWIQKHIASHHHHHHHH
Protocol: as §1

[1] = biological target: T4, Mu-FXII N398K mutant with C-terminal 8xHis-tag (mouse, UniProt Q80YC5 20-597); experiment: Western blot, non-reducing, 3F7 mAb detected with anti-human IgG-FITC
T4 construct: Mouse to rat residue change; culture supernatant; also called mutant c) N398K
T4 sequence: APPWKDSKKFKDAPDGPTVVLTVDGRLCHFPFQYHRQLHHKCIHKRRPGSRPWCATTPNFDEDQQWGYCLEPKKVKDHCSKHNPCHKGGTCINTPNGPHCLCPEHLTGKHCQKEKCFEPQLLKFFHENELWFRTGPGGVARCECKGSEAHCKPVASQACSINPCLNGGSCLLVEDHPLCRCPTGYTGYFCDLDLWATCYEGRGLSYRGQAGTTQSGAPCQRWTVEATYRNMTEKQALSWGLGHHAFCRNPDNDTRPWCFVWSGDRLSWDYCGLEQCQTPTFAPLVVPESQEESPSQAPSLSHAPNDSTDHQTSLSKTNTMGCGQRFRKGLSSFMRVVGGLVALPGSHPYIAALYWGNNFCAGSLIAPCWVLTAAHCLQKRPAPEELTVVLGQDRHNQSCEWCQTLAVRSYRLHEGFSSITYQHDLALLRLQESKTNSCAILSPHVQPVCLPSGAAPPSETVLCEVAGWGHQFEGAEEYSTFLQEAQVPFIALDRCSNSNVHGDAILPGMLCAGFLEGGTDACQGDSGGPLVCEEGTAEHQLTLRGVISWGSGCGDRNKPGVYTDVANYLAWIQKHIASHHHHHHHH
Protocol: as §1

IC50 (read off the curve) (human FXIIa): ~10 nM | binding result (T538A): binds | binding result (N516S): binds | binding result [1]: no binding
B1: monoclonal antibody 3F7 (fully human IgG4/lambda) (antibody, V domains shown)
VH: EVQLLESGGGLVQPGGSLRLSCAASGFTFSKYIMQWVRQAPGKGLEWVSGIRPSGGTTVYADSVKGRFTISRDNSKNTLYLQMNSLRAEDTAVYYCARALPRSGYLISPHYYYYALDVWGQGTTVTVSS
VL: QSELTQPPSASGTPGQRVTISCSGSSSNIGRNYVYWYQQVPGTAPKLLIYSNNQRPSGVPDRFSGSKSGTSASLVISGLRSEDEADYYCAAWDASLRGVFGGGTKLTVLG
notes: also called 3F7 mAb; MAb 3F7
